Experimental findings from patent publication US20230192831A1 (published 2023) are described below.

The experiment has as its target T1, human GREM1 (hGREM1-His; SEQ ID NO: 595) (human, UniProt O60565 25-184).
T1 construct: also called biotin-hGREM1-His; recombinant human GREM1 protein
T1 sequence: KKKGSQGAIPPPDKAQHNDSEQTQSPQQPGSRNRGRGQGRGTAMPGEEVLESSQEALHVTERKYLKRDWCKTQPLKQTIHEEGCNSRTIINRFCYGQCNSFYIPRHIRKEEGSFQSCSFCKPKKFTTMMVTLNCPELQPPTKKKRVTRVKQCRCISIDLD
Briefly: competition ELISA, 100 pM biotin-hGREM1-His on plate-coated hBMP4. Background: ELISA stands for enzyme-linked immunosorbent assay.

Experimental: Data were analyzed using a sigmoidal dose-response model within Prism™ software. […] The absorbance values of the wells containing the highest concentration for each antibody were used to determine the percent maximum blocking.

B1: H4H6243P (antibody, human IgG4, V domains shown)
VH: QVQLVQSGAEVKKPGASVKVSCKVSGYTLTELSMHWVRQAPGKGLEWMGGFDPEDGETIYAQKFQDRVTMTEDTSTDTAYMELSSLRSEDTAVYYCVTDDYEILPEYPYNMDVWGQGTTVTVSS
VL: DIQMTQSPSSLSASVGDRVTITCRASQSISTYLNWYQQKPGKAPKLLIYAASSLQSGVPSRFSGSGSGTDFTLTIRSLQPEDFATYYCQQSHITPFTFGPGTKVDIK
notes: H4H = human IgG4 Fc
With B1, the IC50 amounted to 7.2 pM.

The IC50 is the concentration at which inhibition is half-maximal.
